# Laboratory results published in paper PMC3766439 (Clinical cancer research : an official journal of the …, 2013).
# Target: Nus-Tag EGFRvIII ECD deletion mutant CT 292–346 (Homo sapiens, UniProt P00533)
# Test: ELISA
binder,measurement,value
"D2C7 monoclonal antibody (antibody, V domains shown) VH: EVHLQQSGPELEKPGASVKISCKASGYSFTGYNMNWVKQSNGKSLEWIGNIDPYYGDTDYDQKFKGKATLTADKSSNTVYMQLQSLTSEDSAVYYCARGAHRDYYAMDYWGQGTSVTVSS VL: DIQMTQSPASLSASVGETVTITCRTSENIYIYLAWYQQKQGKSPQLLVYNAKTLAEGVPSRFSGSGSGTQFSLKINGLQPEDFGGYYCQQHYGTPYTFGGGTKLEKK",binding result,binds
